Key:
HIV (HTLV-IIIB) = assay: Inhibitory activity against HIV infection and proliferation in MT-4 cells (indirect fluorescence antibody method); format: cell-based, human immunodeficiency virus (HIV); conditions: three days, positive control 26.0%
Procedure: (Method) Cultured supernatant of MOLT-4/HTLV-IIIB cells, a HTLV-IIIB persistent infected strain of HIV, was used as a viral solution. The supernatant was kept at -80° C. Human T cell line MT-4 was used for the test. MT-4 was subcultured in RPMI 1640 medium containing 10% fetal calf serum (FCS). Sample, LF derived peptide, was dissolved in RPMI 1640 medium and one ml of the diluted solution at various concentrations was added to the cells. The inoculated MT-4 test sample was incubated for 60 minutes and infected with HIV at a concentration of moi […]=0.01 and one ml of the cell solution adjusted at a cell density of 3×10^5 cells/ml was added. The cells were cultured for three days : and HIV infected cells were determined with an indirect fluorescence antibody method.
HIV infected cells were determined by the indirect fluorescence antibody method using HIV infected patient serum as a primary antibody. […] HIV infected MT-4 cells cultured without addition of the sample was used as a positive control and cells without addition of viral solution was cultured to make a negative control group.

[1] = test system: Human CMV (Tanaka strain); assay: Inhibitory activity against human CMV infection and proliferation in HELF cells (fluorescence staining); format: cell-based, Human cytomegalo virus; conditions: 24 hrs., concentration not given
Procedure: (Method) LF derived peptide was dissolved in 2% serum added MEM medium to give five mg/ml solution, filtered and sterilized to make a stock solution. The stock solution was diluted with 2% serum added MEM medium on use. Samples containing human embryo lung fibroblast cells (HELF cells) were suspended in 2% serum added MEM medium and incubated for 10 minutes. The cells were collected by centrifugation, washed twice with 2% serum added MEM medium and suspended in 2% serum added MEM medium. Human cytomegalo virus [Human CMV (Tanaka strain)] was added, incubated for 24 hrs., fluorescence stained with human CMV positive serum and the adsorption rate of human CMV to the cells was determined.
The results are judged from the numbers of fluorescent stained cells per one cover slip.

[2] = test system: influenza virus A/PR/8/34; conditions: 100 μl of one mg/ml solution in allantoic cavity three hours before virus; average of five eggs

B1: Human LF: human lactoferrin, an iron-binding protein secreted in milk (protein, UniProt P02788 20-710, looked up)
Lactotransferrin: GRRRSVQWCAVSQPEATKCFQWQRNMRKVRGPPVSCIKRDSPIQCIQAIAENRADAVTLDGGFIYEAGLAPYKLRPVAAEVYGTERQPRTHYYAVAVVKKGGSFQLNELQGLKSCHTGLRRTAGWNVPIGTLRPFLNWTGPPEPIEAAVARFFSASCVPGADKGQFPNLCRLCAGTGENKCAFSSQEPYFSYSGAFKCLRDGAGDVAFIRESTVFEDLSDEAERDEYELLCPDNTRKPVDKFKDCHLARVPSHAVVARSVNGKEDAIWNLLRQAQEKFGKDKSPKFQLFGSPSGQKDLLFKDSAIGFSRVPPRIDSGLYLGSGYFTAIQNLRKSEEEVAARRARVVWCAVGEQELRKCNQWSGLSEGSVTCSSASTTEDCIALVLKGEADAMSLDGGYVYTAGKCGLVPVLAENYKSQQSSDPDPNCVDRPVEGYLAVAVVRRSDTSLTWNSVKGKKSCHTAVDRTAGWNIPMGLLFNQTGSCKFDEYFSQSCAPGSDPRSNLCALCIGDEQGENKCVPNSNERYYGYTGAFRCLAENAGDVAFVKDVTVLQNTDGNNNEAWAKDLKLADFALLCLDGKRKPVTEARSCHLAMAPNHAVVSRMDKVERLKQVLLHQQAKFGRNGSDCPDKFCLFQSETKNLLFNDNTECLARLHGKTTYEKYLGPQYVAGITNLKKCSTSPLLEACEFLRK
ratio of stained (HIV infected) cells (HIV (HTLV-IIIB); sample 63 μg/ml): 17% | ratio of stained (HIV infected) cells (HIV (HTLV-IIIB); sample 125 μg/ml): 8.6% | ratio of stained (HIV infected) cells (HIV (HTLV-IIIB); sample 250 μg/ml): 7.3% | ratio of stained (HIV infected) cells (HIV (HTLV-IIIB); sample 500 μg/ml): 5.8% | ratio of stained (HIV infected) cells (HIV (HTLV-IIIB); sample 1,000 μg/ml): 3.1% | Inhibitory rate of human CMV infection [1]: 94.8% | Inhibitory rate of infection and proliferation of influenza virus [2]: 87.5%
